What was measured:
[1] = test system: Arabidopsis mutant line AS11; experiment: Complementation of Arabidopsis AS11 DGAT mutant by seed-specific expression of TmDGAT1; format: in vivo, Arabidopsis thaliana; settings: homozygous T3 seed lines, napin promoter
Description: FIG. 9. Complementation of A. thaliana AS11 mutant seed oil and fatty acid profile by expression of TmDGAT1. Transformation of Arabidopsis mutant line AS11 with the TmDGAT1 cDNA under the control of a napin promoter leads to a restoration of (A) fatty acid composition profile of the transgenic lines and (B) the WT level oil content. Total oil content (as percentage of mature seed dry weight) and fatty acid composition (% wt/wt) were determined on the seed oil extracted from T3 seeds of Arabidopsis pSE:WT and pSE:AS11 (empty plasmid) controls and from napin:TmDGAT1 AS11 transgenics lines.
The final binary vector (napin/DGAT/nos) was verified and electroporated into Agrobacterium tumefaciens cells strain GV3101 containing helper plasmid pMP90 (Koncz and Schell, 1986). Plasmid integrity was verified by DNA sequencing following its re-isolation from A. tumefaciens and transformation into E. coli. […]
The coding region of the TmDGAT1 (SEQ. ID. NO: 2) was cloned into a pSE vector behind the seed-specific napin promoter. […] At the same time several independent plasmid only control AS11 transgenic (pSE vector without DGAT1 insert) lines, as well as napin:TmDGAT1 in WT and pSE in WT transgenic lines were propagated and analyzed. […]

DGAT activity = experiment: Substrate preference of recombinant TmDGAT1 expressed in yeast H1246MATα; format: biochemical, Tropaeolum majus
Description: FIG. 8. Expression of TmDGAT1 in yeast mutant H1246 MATα. DGAT assays were performed on cell lysates of yeast quadruple mutant (DGAT-, PDAT-, ASAT1^−, ASAT2^−) strain:H1246 MATα transformed with pYES2.1/V5-His-TOPO plasmid only (Control) and TmDGAT1/pYES2.1 in the presence of ^14C-labeled 16:0-, 18:0-, 18:1-, eicosenoyl-(20:1 Δ11) and 22:1 acyl-CoAs and sn-1,2-diolein (18:1 DAG) or sn-1,2-dierucin (22:1 DAG). The enzyme activity is scarcely detected in the yeast strain harboring the empty control vector, and has been subtracted from the enzyme activities detected from the H1246MATα strain expressing the TmDGAT1.
The TmDGAT1 ORF (SEQ. ID. NO: 2) in pYES2.1/V5-His-TOPO plasmid was transformed into a quadruple yeast mutant H1246MATα (Sandager et al, 2002) using the S.c. EasyComp™ transformation Kit (Invitrogen). Yeast cells transformed with pYES2.1/V5-His-TOPO plasmid only were used as a control. Transformants were selected by growth on synthetic complete medium lacking uracil (SC-ura), supplemented with 2% (w/v) glucose. The colonies were transferred into liquid SC-ura with 2% (w/v) glucose and grown at 28° C. overnight. The overnight cultures were diluted to an OD of 0.4 in induction medium (SC-ura+2% Galactose+1% Raffinose), and were induced for 24-36 hours at 28° C. Cells were collected and broken using glass beads. The crude protein concentration in the lysates was normalized using the Biorad assay based on the method of (Bradford, 1976) and assayed for DGAT activity. DGAT assays were conducted at pH 7.4, with shaking at 100 rev/min in a water bath at 30° C. for 60 min. […] The ^14C-labelled TAGs were isolated and counted as described above for insect cell expression.
H1246MATα yeast cells harboring an empty pYES2.1 vector plasmid were used as a control. […] In both cases, the lowest level of TAG was detected when using the saturated 16:0-acyl-CoA. […]

[2] = acceptor sn-1,2-diolein or sn-1,2-dierucin

B1: TmDGAT1: Tropaeolum majus acyl-CoA-dependent diacylglycerol acyltransferase 1, 518 amino acids (SEQ ID NO: 3), encoded by ORF SEQ ID NO: 2 (protein, listed as Tropaeolum majus)
chain: MAVAESSQNTTTMSGHGDSDLNNFRRRKPSSSVIEPSSSGFTSTNGVPATGHVAENRDQDRVGAMENATGSVNLIGNGGGVVIGNEEKQVGETDIRFTYRPSFPAHRRVRESPLSSDAIFKQSHAGLFNLCIVVLIAVNSRLIIENLMKYGWLIDTGFWFSSRSLGDWSIFMCCLTLPIFPLAAFIVEKLVQRNHISELVAVLLHVIVSTAAVLYPVIVILTCDSVYMSGVVLMLFGCIMWLKLVSYAHTSSDIRTLAKSGYKGDAHPNSTIVSCSYDVSLKSLAYFMVAPTLCYQPSYPRSSCIRKGWVVRQFVKLIVFIGLMGFIIEQYINPIVRNSKHPLKGDFLYAIERVLKLSVPNLYVWLCMFYSFFHLWLNILAELLRFGDREFYKDWWNAKTVAEYWKMWNMPVHRWMVRHLYFPCLRNGIPKEGAIIIAFLVSGAFHELCIAVPCHVFKLWAFIGIMFQVPLVLITNYLQEKFSNSMVGNMIFWFIFCILGQPMCVLLYYHDLINLKEK
In the case of B1, the “TAG levels of AS11 seed after expression” value [1] is reported as “at least as high as that found in wild type Arabidopsis”, the “fatty acid composition of AS11 seed oil after expression” value [1] is reported as “restoring the proportions of 18:1, 20:1 and 18:3 to give a WT profile” and the “DGAT activity using 20:1-CoA compared to 18:1-CoA” value (DGAT activity; [2]) is reported as “about 2 fold”. The “DGAT activity using 22:1-CoA compared to 18:1-CoA” value (DGAT activity; [2]) was about 3 fold and the “activity with radiolabeled free fatty acids as acyl donors” value (DGAT activity; data not shown) was “no activity”.
